From US20240059794A1 (PARASOL BIOTECH, published 2024)

B1: C12 (VHH)
VHH: QVQLVESGGGLVQPGGSLRLSCAASSNIFRAYGMDWYRQAPGKQREMVATIWLSGRSTYTDAVKGRFTISRDNAKNTVYLQMNNLKPEDTAVYYCNAGPTTASSVRQYWGQGTQVTVSS
notes: Alpaca VHH tested as culture supernatant of IPTG-induced HB2151 bacteria (pComb3XSS phagemid); also called clone C12
B2: C21 (VHH)
VHH: QVQLVESGGGLVQPGGSLRLSCTSSSNIFRIYGMDWYRQAPGKQREIVATIYLSGRTTYSDAVKGRFTISRDNAKDTVYLQMNSLKPEDTAVYYCNAGEPTASSVRQYWGQGTQVTVSS
notes: Alpaca VHH tested as culture supernatant of IPTG-induced HB2151 bacteria (pComb3XSS phagemid); also called clone C21
B3: C27 (VHH)
VHH: EVQLVESGGGLVQPGGSLRLSCTSSSNIFKIYGMDWYRQAPGKQREIVATIYLSGRTTYSDAVKGRFTISRDNAKNTVYLQMNTLKPEDTAVYYCNAGETTASSVRQYWGQGTQVTVSS
notes: Alpaca VHH tested as culture supernatant of IPTG-induced HB2151 bacteria (pComb3XSS phagemid); also called clone C27
B4: C13 (VHH)
VHH: QVQLVESGGGLVQPGGSLRLSCAASSNIFRAYGMDWYRQAPGKQREMVATIWLSGRTTYTDAVKGRFTISRDNAKNTVYLQMNSLKPEDTAVYYCNAGAPTASSGRQYWGQGTQVTVSS
notes: Alpaca VHH tested as culture supernatant of IPTG-induced HB2151 bacteria (pComb3XSS phagemid); also called clone C13
B5: C15 (VHH)
VHH: QVQLVESGGGVVQPGGSLRLSCAASSNIFRAYGMDWYRQAPGKQREMVATIWLSGRSTYTDAVQGRFTISRDNAKNTVYLQMNNLKPEDTAVYYCNAGPTTASSVRQYWGQGTQVTVSS
notes: Alpaca VHH tested as culture supernatant of IPTG-induced HB2151 bacteria (pComb3XSS phagemid); also called clone C15
B6: C08 (VHH)
VHH: EVQLVESGGGLVQPGGSLRLSCAASSNIFRAYGMGWYRQAPGKQREMVAAIWLSGRTEYADAVQGRFTVSRDNAKNTVYLQMNSLKPEDTAVYYCNAGPPTATSVRQYWGQGTQVTVSS
notes: Alpaca VHH tested as culture supernatant of IPTG-induced HB2151 bacteria (pComb3XSS phagemid); also called C8; clone C08
B7: C30 (VHH)
VHH: QVQLVESGGGLVQPGGSLRLSCAASGSIFRVYGMDWYRQAPGKQRELVASIFLSGRTNYADAVKGRFTLSRDNAKNTMYLQMNSLKPEDTAVYYCNAGETTASSVRQYWGQGTQVTVSS
notes: Alpaca VHH tested as culture supernatant of IPTG-induced HB2151 bacteria (pComb3XSS phagemid); also called clone C30
B8: C31 (VHH)
VHH: AVQLVESGGGLVQPGGSLRLSCAASGSIFRVYGMDWYRQAPGKQRELVASIWLSGRTNYADAVKGRFTLSRDNAKNTMYLQMNSLKPEDTAVYYCNAGETTASSVRQYWGQGTQVTISS
notes: Alpaca VHH tested as culture supernatant of IPTG-induced HB2151 bacteria (pComb3XSS phagemid); also called clone C31

Molecular target: T1, GUCY2C protein (Ser24-Gln430) (Homo sapiens (Human), UniProt P25092 24-430)
T1 construct: Synthesized by GenScript and used as the immunogen; No tags are stated; also called extracellular region of the artificially synthesized GUCY2C protein; Protein GUCY2C
T1 sequence (P25092 24-430): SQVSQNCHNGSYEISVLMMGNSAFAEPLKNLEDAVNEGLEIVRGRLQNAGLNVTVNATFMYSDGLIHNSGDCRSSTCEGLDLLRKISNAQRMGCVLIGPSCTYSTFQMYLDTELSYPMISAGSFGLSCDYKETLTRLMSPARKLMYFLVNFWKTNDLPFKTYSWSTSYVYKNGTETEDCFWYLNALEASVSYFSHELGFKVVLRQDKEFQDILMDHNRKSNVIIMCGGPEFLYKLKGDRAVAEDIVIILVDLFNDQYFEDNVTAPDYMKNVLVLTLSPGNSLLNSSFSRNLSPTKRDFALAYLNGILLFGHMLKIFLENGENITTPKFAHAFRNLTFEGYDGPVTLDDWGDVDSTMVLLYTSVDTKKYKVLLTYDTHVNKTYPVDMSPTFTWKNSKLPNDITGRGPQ
Assay: Screening ELISA: culture supernatant of the IPTG-induced HB2151 clone on a plate coated with 1 ug/ml GUCY2C; detection with peroxidase goat anti-alpaca IgG (VHH domain), TMB, absorbance at 450 nm; VHH concentration not given; negative control (NC) bar in the same chart is labelled 0.15
Experimental: The phages of 3 rounds screening were transfected into HB2151 bacteria, and 100 ul of infected HB2151 bacteria were taken to scrape on the surface of 2×YT-AG solid culture dish. 96 single clones were picked and added into 2×YT medium, then cultured in a 96 deep-well plate. 0.8 mM IPTG was added into the medium when the bacteria grew to logarithmic phase and were cultured overnight at 25° C. The supernatant of medium was added to the 1 ug/ml GUCY2C coated ELISA plate which was contained in two control wells. After incubating for 2 hours at 37° C., the plate was washed 3 times with PBST. Peroxidase AffiniPure Goat anti-Alpaca IgG, VHH domain (Jackson Immumo Research) was added into the Elisa plate, incubated at 37° C. for 1 hour and washed 3 times with PBST. TMB solution was added for 20 minutes, then the reaction was stopped with 2M sulfuric acid. The absorbance value at 450 nm wavelength was read on the microplate reader (FIG. 2). Clones with an absorbance value 2.1 times higher than the negative control were considered positive clones and were sent to sequencing.

Point of comparison: B6, OD450 0.86. Against it:
- B1 — higher, 2
- B2 — lower, 0.42
- B3 — higher, 1.47
- B4 — lower, 0.8
- B5 — higher, 1
- B7 — higher, 0.93
- B8 — lower, 0.45
